Patent publication US20050079151A1, “Therapeutic agents for apoptosis-related diseases” (priority 1998, published 2005)

What was measured:
[1] = test system: G401 cell lines derived from Wilms tumor; test: Inhibitory effect on apoptosis induced by a carcinostatic (MTT method); format: cell-based; conditions: MK 1, 10 or 100 ng/mL + cisplatin 100 μM, 12 hour culture, compared with the cisplatin treated group
Protocol: Apoptosis was induced in G401 cell lines derived from Wilms tumor, infantile renal cancer, by a carcinostatic to examine the apoptosis-inhibitory effect of MK by the MTT method.
Five groups were prepared; the untreated group, the cisplatin (100 μM) treated group, and the MK (1, 10 or 100 ng/mL)+cisplatin treated groups.
G401 cells were suspended in the Dulbecco Modified Eagle Medium containing 10% fetal bovine serum (FBS) (10% FBS/DMEM) and seeded into a 96-well plate at 5000 cells/well. The plate was incubated in a CO2 incubator (37° C., 5% CO2; the same shall apply hereinbelow) so that the cells could attach to the plate.
The cells were washed with DMEM containing 0.1% FBS (0.1% FBS/DMEM) twice (hereafter, 0.1% FBS/DMEM was used for washing unless otherwise indicated), and cultured in 0.1% FBS/DMEM overnight. After culturing, MK was added to the MK treated groups at 1, 10 or 100 ng/ml. Each group was cultured for 6 hours. Six μl of 0.5 mg/ml cisplatin (100 μM) (Bristol-Myers Squib Company; Tokyo) was added to the cisplatin treated groups. Each group was cultured in 0.1% FBS/DMEM for 2 hours. […]
Fifteen μl of MTT reagent (5 mg/ml) (Wako Pure Chemical Laboratories; Osaka) were added to each well of the above-mentioned five groups and cultured for 4 hours. […] Absorbance (OD540-655) in each well was measured using a microplate reader.

[2] = test system: renal uriniferous tubule cells; test: Inhibitory effect on cisplatin-induced apoptosis in renal uriniferous tubule cells of MK knockout mice; format: in vivo, mouse
Protocol: Heterozygous 129/Sv knockout mice (male, 8- to 12-week old) in which parts of exons 2 and 3 of the MK gene were destroyed (Biochemistry 7, 1996, Volume 68, pp. 1239, 4-p-1244) were divided into two groups; the saline administration group and the MK administration groups (14 individuals each). As a control group, the untreated wild-type mice (four individuals) were prepared. Dosage of MK was 200 μg/kg and that of saline was 10 ml/kg.
MK or saline was intraperitoneally administered to the mice in two groups in the morning and cisplatin 9.3 mg/kg was intraperitoneally administered to the mice in two groups in the afternoon of the same day (this day is Day 0).
In the morning of Day 1, MK or saline was interperitoneally administered to each mouse in the same manner as on […].
On Day 2, four mice were selected from each group (the untreated wild-type mice group and the two treated groups) to collect urine and whole blood. Clots in the collected blood were retracted for 1 hour at 37° C., and centrifuged (4° C., 8000 rpm, 10 min) to separate the serum. […]
Blood urea nitrogen (BUN) and serum creatinine frequently used as indexes of renal dysfunction in day-to-day diagnosis were measured and proteins in urine were simply quantified. […]
On Day 4, DNA fragmentation in the kidney paraffin sections representating strong damage was analyzed by the TUNEL method (In situ Apoptosis Detection Kit; TaKaRa).

B1: MK: midkine, a heparin-binding growth and differentiation factor; human MK protein (SEQ ID NO: 3; or recombinant, secreted by yeast) (protein, UniProt P21741 21-143, looked up)
Midkine: VAKKKDKVKKGGPGSECAEWAWGPCTPSSKDCGVGFREGTCGAQTQRIRCRVPCNWKKEFGADCKYKFENWGACDGGTGTKVRQGTLKKARYNAQCQETIRVTKPCTPKTKAKAKAKKGKGKD
**Q.** For B1, which “numbers of the surviving cells (MTT, absorbance OD540-655)” value [1] is on record?
**A.** Its value is “increased numbers of the surviving cells in an MK concentration-dependent manner”.

**Q.** And the “number of TUNEL positive cells in kidney paraffin sections” value ([2]; Day 4, MK 200 μg/kg i.p., cisplatin 9.3 mg/kg i.p., versus saline administrated group)?
**A.** The value was “significantly decreased”.

**Q.** What about the “renal dysfunction caused by cisplatin (BUN, serum creatinine, urine protein, HE sections)” value ([2]; MK 200 μg/kg i.p. daily, cisplatin 9.3 mg/kg i.p. on Day 0) of the same molecule?
**A.** The value was “effect of MK for relieving renal dysfunction caused by cisplatin was observed”.
